Source: US20220119534A1 (DRAGONFLY THERAPEUTICS, published 2022)
Numbering of substitutions follows the chain as printed. In names and notes the source's numbering stands. Several values for one entry are separate records, joined by “and”; a condition that tells them apart may be missing. Identical values can stand only once.

Columns and labels:
[1] = target: T1, Human CD16a V158 (FcγRIIIa V158) (human, UniProt P08637 17-208, biotinylated (site not stated)); assay: SPR; biotinylated CD16a V158 captured on SA chip, TriNKET as analyte; 1:1 kinetic fit; control, n=3
T1 construct: V158 is the allele name in mature numbering; also called hCD16aV; hCD16a V158
T1 sequence (P08637 17-208 F176V limits assumed): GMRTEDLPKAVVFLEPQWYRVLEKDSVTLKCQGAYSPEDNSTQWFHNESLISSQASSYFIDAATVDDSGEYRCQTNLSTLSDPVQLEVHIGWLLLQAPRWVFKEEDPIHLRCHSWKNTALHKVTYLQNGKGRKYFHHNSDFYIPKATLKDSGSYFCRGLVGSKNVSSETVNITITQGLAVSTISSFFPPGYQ

mFc-cNKG2D = target: T2, mFc-cNKG2D (cynomolgus monkey, UniProt P61252 73-216); assay: SPR Biacore 37 C; mFc-tagged cyno NKG2D dimer, TriNKET as analyte; steady state affinity fit; average of 4
T2 construct: extracellular domain; Made in house (Dragonfly Tx); also called recombinant cyno NKG2D extracellular domain (ECD); mFc-tagged cyno NKG2D dimer; not shown: mouse Fc tag
T2 sequence (looked up): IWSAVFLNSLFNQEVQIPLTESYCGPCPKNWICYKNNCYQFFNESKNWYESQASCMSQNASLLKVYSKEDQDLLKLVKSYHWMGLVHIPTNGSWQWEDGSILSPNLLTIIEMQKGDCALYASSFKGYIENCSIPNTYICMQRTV

mFc-hNKG2D [2] = target: T3, mFc-hNKG2D (human, UniProt P26718 73-216); assay: SPR Biacore 8K 37 C; mFc-hNKG2D captured on anti-mFc chip, TriNKET as analyte; steady state fit; control sample, n=3
T3 construct: extracellular domain; Made in house (Dragonfly Tx); the order of tag and ECD follows the name mFc-hNKG2D; also called mFc-tagged human NKG2D; not shown: mouse Fc tag
T3 sequence (looked up): T2 sequence (looked up) with N43D, I133T

mFc-hNKG2D [3] = target: T3, mFc-hNKG2D; assay: SPR Biacore 8K 37 C; mFc-hNKG2D captured on anti-mFc chip, TriNKET as analyte; steady state fit; after 4 wks 40 C in phosphate/citrate/NaCl pH 7.8, n=2
[4] = target: T4, Human CLEC12A expressed on cells (Ba/F3-hCLEC12A, PL21, HL60) (human, UniProt Q5QGZ9 1-265); assay: cell-based or functional assay
T4 sequence: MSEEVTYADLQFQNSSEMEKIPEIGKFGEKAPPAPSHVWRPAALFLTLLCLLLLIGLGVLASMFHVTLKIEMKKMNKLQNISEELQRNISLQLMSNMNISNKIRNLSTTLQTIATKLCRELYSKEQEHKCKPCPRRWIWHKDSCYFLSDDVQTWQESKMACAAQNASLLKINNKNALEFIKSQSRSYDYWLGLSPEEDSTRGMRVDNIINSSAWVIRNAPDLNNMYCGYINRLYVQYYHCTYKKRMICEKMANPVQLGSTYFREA

[5] = target: T4, Human CLEC12A expressed on cells …; assay: flow cytometry on PL21 AML cells
Human CD32b (FcγRIIb) = target: T5, Human CD32b (FcγRIIb) (human, UniProt P31994 46-217, limits assumed, biotinylated); assay: SPR 25C, biotinylated CD32b captured
T5 construct: Bought recombinant receptor; also called hFcγRIIb; CD32b (FcγR2b)
T5 sequence (looked up): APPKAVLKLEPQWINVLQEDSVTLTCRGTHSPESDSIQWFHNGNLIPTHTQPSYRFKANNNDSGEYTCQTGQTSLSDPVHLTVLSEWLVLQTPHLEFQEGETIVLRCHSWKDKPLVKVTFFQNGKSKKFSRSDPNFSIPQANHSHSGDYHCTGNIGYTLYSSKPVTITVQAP

Human FcRn [6] = target: T6, Human FcRn (human, UniProt P55899 24-297; P61769 21-119); assay: SPR 25C, pH 6.0, FcRn on chip, steady state fit
T6 construct: Bought recombinant receptor; also called hFcRn

Human FcRn [7] = target: T7, Human FcRn (human, UniProt P55899 24-297; P61769 21-119); assay: SPR, steady state fit
T7 construct: Bought recombinant receptor; also called hFcRn

Cynomolgus FcRn = target: T8, Cynomolgus FcRn (cynomolgus monkey, UniProt Q8SPV9 24-297; Q8SPW0 21-119); assay: SPR, steady state fit
T8 construct: Bought recombinant receptor; also called cFcRn; Cyno FcRn
T8 sequence (Q8SPV9 24-297 limits assumed, chain 1 of 2): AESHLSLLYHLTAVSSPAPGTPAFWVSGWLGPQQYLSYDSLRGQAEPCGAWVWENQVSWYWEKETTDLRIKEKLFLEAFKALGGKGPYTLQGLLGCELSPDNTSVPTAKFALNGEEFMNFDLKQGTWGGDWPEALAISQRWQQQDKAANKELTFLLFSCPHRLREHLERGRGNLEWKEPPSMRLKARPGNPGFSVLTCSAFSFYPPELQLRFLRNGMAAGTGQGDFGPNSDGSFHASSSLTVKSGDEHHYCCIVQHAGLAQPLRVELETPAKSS
T8 sequence (Q8SPW0 21-119 limits assumed, chain 2 of 2): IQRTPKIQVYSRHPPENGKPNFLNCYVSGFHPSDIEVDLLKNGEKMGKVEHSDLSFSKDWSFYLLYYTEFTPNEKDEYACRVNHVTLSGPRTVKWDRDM

De-sialylated CLEC12A = target: T9, De-sialylated CLEC12A (human, UniProt Q5QGZ9 65-265, treated with neuraminidase (terminal sialic acids removed)); assay: SPR, de-sialylated CLEC12A; average of 3 replicates
T9 construct: Recombinant human CLEC12A after neuraminidase; also called de-sialylated hCLEC12A
T9 sequence: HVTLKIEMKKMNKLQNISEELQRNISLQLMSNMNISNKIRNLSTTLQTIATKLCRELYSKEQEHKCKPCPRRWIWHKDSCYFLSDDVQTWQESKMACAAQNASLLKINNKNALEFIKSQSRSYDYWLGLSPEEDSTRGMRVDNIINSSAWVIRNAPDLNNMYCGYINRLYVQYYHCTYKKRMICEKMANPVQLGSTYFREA

mFc-hNKG2D [8] = target: T10, mFc-hNKG2D (human, UniProt P26718 73-216); assay: SPR, 37 C, mFc-hNKG2D captured, kinetic fit; average
T10 construct: extracellular domain; Recombinant mFc-tagged NKG2D dimer, made in house; also called human NKG2D; not shown: mouse Fc tag
T10 sequence (looked up): T2 sequence (looked up) with N43D, I133T

Human CLEC12A-His = target: T11, Human CLEC12A-His (human, UniProt Q5QGZ9 65-265); assay: SPR, 37 C, AB0192 captured, hCLEC12A-His analyte; average of 3 replicates
T11 construct: Recombinant soluble protein made in house; also called hCLEC12A-His; hCLEC12A; not shown: His tag
T11 sequence: T9 sequence

[9] = target: T12, human CLEC12A on cells (HL60, PL21, Ba/F3-hCLEC12A) (human, UniProt Q5QGZ9 1-265); assay: flow cytometry, 40 nM, MFI after 2 h 37 C relative to 2 h on ice, PL21 cells
T12 construct: Endogenous on the AML lines HL60 and PL21; brought into mouse Ba/F3 cells by retroviral transduction; The cell line stands under assay; also called CLL-1
T12 sequence: T4 sequence

B1: F3'-1602 TriNKET (bispecific antibody, human IgG1, kappa)
chain: QLQLQESGPGLVKPSETLSLTCTVSGFSLTNYGLHWIRQPPGKCLEWIGVIWSGGKTDYNPSLKSRVTISKDTSKNQFSLKLSSVQAADTAVYYCAKYDYDDSLDYWGQGTLVTVSSGGGGSGGGGSGGGGSGGGGSDIQMTQSPSSLSASVGDRVTITCHASQNINFWLSWYQQKPGKAPKLLIYEASNLHTGVPSRFSGSGSGTRFTLTISSLQPEDIATYYCQQSHSYPLTFGCGTKLEIKGSDKTHTCPPCPAPELLGGPSVFLFPPKPKDTLMISRTPEVTCVVVDVSHEDPEVKFNWYVDGVEVHNAKTKPREEQYNSTYRVVSVLTVLHQDWLNGKEYKCKVSNKALPAPIEKTISKAKGQPREPRVYTLPPCRDELTKNQVSLTCLVKGFYPSDIAVEWESNGQPENNYKTTPPVLVSDGSFTLYSKLTVDKSRWQQGNVFSCSVMHEALHNHYTQKSLSLSPG
heavy: EVQLVESGGGLVKPGGSLRLSCAASGFTFSSYSMNWVRQAPGKGLEWVSSISSSSSYIYYADSVKGRFTISRDNAKNSLYLQMNSLRAEDTAVYYCARGAPIGAAAGWFDPWGQGTLVTVSSASTKGPSVFPLAPSSKSTSGGTAALGCLVKDYFPEPVTVSWNSGALTSGVHTFPAVLQSSGLYSLSSVVTVPSSSLGTQTYICNVNHKPSNTKVDKKVEPKSCDKTHTCPPCPAPELLGGPSVFLFPPKPKDTLMISRTPEVTCVVVDVSHEDPEVKFNWYVDGVEVHNAKTKPREEQYNSTYRVVSVLTVLHQDWLNGKEYKCKVSNKALPAPIEKTISKAKGQPREPQVCTLPPSRDELTENQVSLTCLVKGFYPSDIAVEWESNGQPENNYKTTPPVLDSDGSFFLYSWLTVDKSRWQQGNVFSCSVMHEALHNHYTQKSLSLSPG
light: DIQMTQSPSSVSASVGDRVTITCRASQGISSWLAWYQQKPGKAPKLLIYAASSLQSGVPSRFSGSGSGTDFTLTISSLQPEDFATYYCQQGVSFPRTFGGGTKVEIKRTVAAPSVFIFPPSDEQLKSGTASVVCLLNNFYPREAKVQWKVDNALQSGNSQESVTEQDSKDSTYSLSSTLTLSKADYEKHKVYACEVTHQGLSSPVTKSFNRGEC
notes: Trispecific F3' format: CLEC12A scFv-Fc paired with NKG2D Fab-Fc; Stressed and control samples of the stability studies are the same molecule; also called AB0237
**Q.** Which results are given for B1?
**A.** Kd [1]: 212 nM; koff [1]: 0.024 s⁻¹; kon [1]: 113000 M⁻¹ s⁻¹; Kd (mFc-cNKG2D): 828 nM; Kd (mFc-hNKG2D [2]): 664 nM; Kd (mFc-hNKG2D [3]): 872 nM

B2: AB0089 TriNKET (bispecific antibody, human IgG1, kappa)
chain: B1 chain with S53V, K56A, K71V, Y98G, D101G, S103T, R207D, I220F
heavy: B1 heavy
light: B1 light
notes: F3' format heterodimer of three chains; human IgG1 Fc with EW-RVT and Y349C/S354C mutations; also called AB0089 Lot AB0089-002; CLEC12A TriNKET AB0089
**Q.** For B2, which “EC50, KHYG-1-CD16aV mediated cytotoxicity, HL60 cells” value [4] is on record?
**A.** 0.27 nM

**Q.** And the “EC50, KHYG-1-CD16aV mediated cytotoxicity, PL21 cells” value [4]?
**A.** 0.16 nM

**Q.** And the EC50 [5]?
**A.** 0.45 nM

**Q.** And the Kd (Human CD32b (FcγRIIb))?
**A.** 7100 nM and 5300 nM and 7400 nM

**Q.** What about the Kd (Human FcRn [6]) of the same binder?
**A.** 1100 nM

B3: AB0192 TriNKET (other)
chain: EVQLVESGGGVVQPGGSLRLSCAASGFTFNAFGMHWVRQAPGKCLEWVAFISSGSTSIYYANTVKGRFTISRDNSKNTLYLQMNSLRAEDTAVYYCARDGYPTGGAMDYWGQGTSVTVSSGGGGSGGGGSGGGGSGGGGSDIQMTQSPSSLSASVGDRVTITCKASQDIYNYLSWFQQKPGKAPKPLIYRANILVSGVPSRFSGSGSGQDYTFTISSLQPEDIATYYCLQFDAFPFTFGCGTKLEIKGSDKTHTCPPCPAPELLGGPSVFLFPPKPKDTLMISRTPEVTCVVVDVSHEDPEVKFNWYVDGVEVHNAKTKPREEQYNSTYRVVSVLTVLHQDWLNGKEYKCKVSNKALPAPIEKTISKAKGQPREPRVYTLPPCRDELTKNQVSLTCLVKGFYPSDIAVEWESNGQPENNYKTTPPVLVSDGSFTLYSKLTVDKSRWQQGNVFSCSVMHEALHNHYTQKSLSLSPG
heavy: B1 heavy
light: B1 light
notes: the condition stands under assay; also called AB0192 Lot AB0192-005
**Q.** Which Kd (Human FcRn [7]) does the source give for B3 here?
**A.** 1500 nM and 1300 nM

**Q.** And the Kd (Cynomolgus FcRn)?
**A.** 1500 nM and 1400 nM and 1200 nM

**Q.** And the Kd (De-sialylated CLEC12A)?
**A.** 1.04 nM

**Q.** What about the koff (De-sialylated CLEC12A) of the same binder?
**A.** 0.00104 s⁻¹

**Q.** What about the kon (De-sialylated CLEC12A) of the same binder?
**A.** 1.01e+06 M⁻¹ s⁻¹

**Q.** What about the Kd (mFc-hNKG2D [8]) of the same binder?
**A.** 779 nM

**Q.** What about the Kd (Human CLEC12A-His) of the same binder?
**A.** 1.81 nM

**Q.** And the koff (Human CLEC12A-His)?
**A.** 0.0014 s⁻¹

**Q.** And the kon (Human CLEC12A-His)?
**A.** 776000 M⁻¹ s⁻¹

**Q.** What about the percent surface retention [9] of the same binder?
**A.** 101%
